Legend:
[1] = target: SARS-CoV-2 D614G mutant S trimer (design Spike_ΔCter_ΔFurin_2P_T4_His with D614G) (SARS-CoV-2 | bacteriophage T4) (UniProt P0DTC2); experiment: negative-stain electron microscopy
[2] = target: SARS-CoV-2 Spike trimer (Wuhan), design Spike_ΔCter_ΔFurin_2P_T4_His (SARS-CoV-2 | bacteriophage T4) (UniProt P0DTC2); experiment: SEC
[3] = target: SARS-CoV-2 Spike trimer (Wuhan), design Spike_ΔCter_ΔFurin_2P_T4_His (SARS-CoV-2 | bacteriophage T4) (UniProt P0DTC2); experiment: negative-stain electron microscopy

| Substance | stoichiometry N [1] | stoichiometry N [2] | stoichiometry N [3] |
| --- | --- | --- | --- |
| SARS-CoV-2 D614G mutant S trimer (design Spike_ΔCter_ΔFurin_2P_T4_His with D614G) (from UniProt P0DTC2 14-1213) (complex) | 3 |  |  |
| SARS-CoV-2 Spike trimer (Wuhan), design Spike_ΔCter_ΔFurin_2P_T4_His (from UniProt P0DTC2 14-1213) (complex) |  | 3 | 3 |
